In the assay the target is hepatic leptin receptor (rat) (UniProt Q62959). The assay can be described thus: cell-based or functional assay.
Chain of UniProt Q62959 (Q62959 22-1162): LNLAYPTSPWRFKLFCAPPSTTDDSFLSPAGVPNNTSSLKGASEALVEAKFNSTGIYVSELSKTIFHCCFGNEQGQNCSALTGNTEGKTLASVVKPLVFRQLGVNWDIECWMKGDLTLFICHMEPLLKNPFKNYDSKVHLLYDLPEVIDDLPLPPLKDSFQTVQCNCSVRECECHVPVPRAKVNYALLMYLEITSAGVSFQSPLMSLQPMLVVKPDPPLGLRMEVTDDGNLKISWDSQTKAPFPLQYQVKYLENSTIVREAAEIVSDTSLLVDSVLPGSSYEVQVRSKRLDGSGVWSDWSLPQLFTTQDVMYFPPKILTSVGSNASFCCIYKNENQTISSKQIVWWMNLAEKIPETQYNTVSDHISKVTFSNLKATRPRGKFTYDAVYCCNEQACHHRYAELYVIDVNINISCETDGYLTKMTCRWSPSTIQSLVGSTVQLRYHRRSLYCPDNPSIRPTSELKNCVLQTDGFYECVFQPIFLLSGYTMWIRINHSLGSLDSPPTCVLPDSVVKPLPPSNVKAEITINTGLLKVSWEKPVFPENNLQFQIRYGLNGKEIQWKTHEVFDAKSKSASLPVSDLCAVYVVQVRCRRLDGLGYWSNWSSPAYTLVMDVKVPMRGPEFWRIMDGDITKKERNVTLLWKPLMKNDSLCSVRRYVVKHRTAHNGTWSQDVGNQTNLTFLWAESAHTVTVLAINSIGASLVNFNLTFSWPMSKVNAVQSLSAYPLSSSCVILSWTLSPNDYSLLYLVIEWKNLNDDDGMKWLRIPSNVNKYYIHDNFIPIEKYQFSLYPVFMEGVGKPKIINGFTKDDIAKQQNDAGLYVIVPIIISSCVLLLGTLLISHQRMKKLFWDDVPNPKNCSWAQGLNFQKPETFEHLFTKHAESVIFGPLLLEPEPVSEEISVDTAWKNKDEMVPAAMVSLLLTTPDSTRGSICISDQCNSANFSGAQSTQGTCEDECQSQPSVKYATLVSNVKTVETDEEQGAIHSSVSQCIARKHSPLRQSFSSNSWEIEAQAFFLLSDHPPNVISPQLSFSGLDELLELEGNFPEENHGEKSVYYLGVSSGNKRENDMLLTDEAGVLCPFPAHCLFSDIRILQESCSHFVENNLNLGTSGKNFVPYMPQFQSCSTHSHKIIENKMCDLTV

In the case of “leptin expressed in vivo from adenovirus containing the leptin cDNA (Adv-leptin) (ligand)”, the hepatic phosho-STAT-3 was 3 fold.

Values taken from patent US20120108503A1.
